Experimental data as given in patent US6780603.

Biological target: α2β1 integrin receptor of human mesangial cells (human) (UniProt P05556)
Assay: cell-based or functional assay

For “P1H5 anti-α2 integrin monoclonal antibody”, the inhibition of adhesion of human mesangial cells grown in 5 mM glucose to cIV (percent of binding in the presence of W6/32) was 60% and the inhibition of adhesion of human mesangial cells grown in 25 mM glucose to cIV (percent of binding in the presence of W6/32) was 75%.
